These results are taken from the supplement of paper PMC10126150.

± gives the standard deviation of the averaged measurements.
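Note: ATP exposure 15 min at 22 °C before imaging.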

This data set relates to ATP. Description: switch fluorescence ratio, 500 uM ATP over buffer (Cy3 cluster intensity, sum of 5 cycles each) (fold (ratio)); higher = stronger signal-on switching upon ATP binding; sequences stand for … in TCGTCGGCAGCGTCAGATGTGTATAAGAGACAGTTTTTTTTTTTTTTTTTTTTTTTTT…TC. The note with it: aptamer strand: ATP DNA aptamer (quencher-CACCTGGGGGAGTATTGCGGAGGAAGG + anchor), 100 nM annealed; ATP concentration: 500 uM. Put shortly:
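The fluorescence ratio divides summed target-cycle Cy3 intensity by summed buffer-cycle Cy3 intensity for each cluster and is averaged per switch-domain sequence. Cy3-labelled switching-strand clusters on a modified Illumina MiSeq flow-cell were annealed to 100 nM quencher-labelled ATP aptamer, then imaged in selection buffer and again after 15 min with 500 uM ATP at 22 °C. Five such cycles were run, with NaOH stripping and re-annealing between them, and clusters outside 100-1000 RFU were excluded.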
As for GAGCGGGGGG, the switch fluorescence ratio was determined as 0.969 ± 0.022. In the case of TAGTTTTGGA it was 0.988 ± 0.01; in that of ATATAGTCTG, 0.9893 ± 0.0046.

Regarding TTTGGGTGAT, the switch fluorescence ratio is 1.02 ± 0.022. The same measure for AAGAGCAGGG: 0.975 ± 0.011.

GGGGAACTGG: the switch fluorescence ratio is 1.01 ± 0.023. The same measure for AATATGAGTA: 0.993 ± 0.038; for TTTTTAGCAT: 1.04 ± 0.084. The same measure for TTCATTATTT: 1 ± 0.024; for TAATTAATGG: 1 ± 0.031.

As to AAGTTTGTTT, the switch fluorescence ratio came to 0.99 ± 0.028. In the case of TCCTTGGGGA, the switch fluorescence ratio turned out to be 1.08 ± 0.086.

CTATTCGTGG: the switch fluorescence ratio was found to be 0.973 ± 0.029.

For CCAGGCGATG, the switch fluorescence ratio is 1.05 ± 0.005. In the case of GATTTTAATG it was 0.981 ± 0.013; in that of GGGGGCGGGG, 1.01 ± 0.03. For the sequence AAATGGAATG, the switch fluorescence ratio was found to be 0.983 ± 0.046.

Consider ATATTTGGAT, for which the switch fluorescence ratio worked out at 1.03 ± 0.018.

Turning to GACGTGGGGC, the switch fluorescence ratio was 1.131 ± 0.0064. In the case of TAGGGGAATT it was 0.967 ± 0.039; in that of ATTGAGGGGG, 1.04 ± 0.052.

As to ACGTGTCGGT, the switch fluorescence ratio was 1.028 ± 0.0037.

Regarding TGTGGGGGAG, the switch fluorescence ratio was 1.03 ± 0.035. For TTTGGAACAT, the switch fluorescence ratio turned out to be 1.01 ± 0.042. In the case of GGGGTGGGAC it was 1.044 ± 0.006; in that of TGGGGGTGTA, 1.05 ± 0.039.

TTTTTGGGAG: the switch fluorescence ratio is 1.01 ± 0.024. With TGATATTGG, the switch fluorescence ratio stood at 0.971 ± 0.045. With TTGTTTCCGA, the switch fluorescence ratio worked out at 1 ± 0.058. The same measure for AATTTAGGAG: 1.01 ± 0.051; for TTTTACACAT: 1.025 ± 0.0057; for GGAGTATGGG: 0.997 ± 0.029. The same measure for GTTGGGGGAG: 0.978 ± 0.02; for CGGTTACCGT: 0.986 ± 0.013. The same measure for AACGCTGGCG: 0.966 ± 0.028.

GAATCTTAAA: the switch fluorescence ratio is 0.997 ± 0.026. Consider TGAAAAAGTT, for which the switch fluorescence ratio was 1.32 ± 0.47. Regarding GTTAGGATGG, the switch fluorescence ratio was 1.01 ± 0.044. The same measure for ACCCGCCAGC: 3.96 ± 1.6; for ATGTGCGGGC: 1.025 ± 0.0063. In the case of TGCTTTTGGG it was 0.976 ± 0.0021; in that of TTGGGGAGGT, 1.01 ± 0.037. The same measure for CTTAGATAGT: 1.01 ± 0.0098.

Turning to AAGGTGTTTT, the switch fluorescence ratio turned out to be 1.08 ± 0.016. In the case of TAAGGTTCTC it was 0.96 ± 0.015; in that of CGCCTAAGTT, 1 ± 0.036. For TGATTGAAGC, the switch fluorescence ratio worked out at 1.03 ± 0.032.

Regarding CACTGGGCGA, the switch fluorescence ratio was 3.28 ± 3.2. The same measure for TACGGGTATA: 1.01 ± 0.025; for GGTACTGGTA: 0.984 ± 0.057. In the case of TGGCATCGGG it was 1.01 ± 0.042; in that of GTGTTAATGG, 0.998 ± 0.022. In the case of GAAGGGGGAC it was 1.01 ± 0.046. Regarding ATGTTAGTCG, the switch fluorescence ratio turned out to be 1.01 ± 0.014. The same measure for ATCGGGGGTT: 0.987 ± 0.023. In the case of AAAAATGGGA it was 0.962 ± 0.044; in that of CTATGACAGC, 1.01 ± 0.016. The same measure for CTAGTCGCCG: 1.003 ± 0.0097; for TGAAAAGAAG: 1.029 ± 0.0061; for GCGAGGGGGT: 0.979 ± 0.054.

Consider TTAGCTTTTT, for which the switch fluorescence ratio is 1.01 ± 0.054. The same measure for TAATGGGGCC: 1.057 ± 0.005; for ATATCTGGCA: 1.02 ± 0.032; for TGGACCCGGC: 0.9858 ± 0.0054. ATCTTCAATT: the switch fluorescence ratio came to 1.005 ± 0.0055. For the sequence GGGTTTTACT, the switch fluorescence ratio amounted to 0.991 ± 0.053.
